First the molecules themselves.
B1: Hairpin Ribozyme (parent)
chain: GUCCUCUUUCACGUGCGCGUGAAAGAGAGAAGUGAACCAGAGAAACACACGUUGUGGUAUAUUACCUGGUA

Variants of B1 are the subject of this data set. The data set is described as follows: self-cleavage, relative activity (ratio to wild type); higher = more cleavage; co-transcriptional.
As for GUCCUCUUUCACGUGCGCGUGUAAGAGAGAAGUGAACCGGAGAAACACACGUUGUGGUAUAUUACCUGGUA [A22U A39G], the self-cleavage stood at 0.277.
Turning to GUCCUCUUUCACGUGCGCGUGUAAGAGAGAAGUGAACCCGAGAAACACACGUUGUGGUAUAUUACCUGGUA [A22U A39C], the self-cleavage worked out at 0.456.
On to GUCCUCUUUCACGUGCGCGUGUAAGAGAGAAGUGAACCAGAGAAACGCACGUUGUGGUAUAUUACCUGGUA [A22U A47G], for which the self-cleavage came out at 0.115.
Consider GUCCUCUUUCACGUGCGCGUGGAAGAGAGAAGUGAACCAGAGAAACACACGUUGUGGUAUAUUACCUGUUA [A22G G69U], for which the self-cleavage turned out to be 0.238.
The figure for GUCCUCUUUCACGUGCGCGUGGAAGAGAGAAGUGAACCAGAGAAACACACGUUGUGGUAUAUUACCUGAUA [A22G G69A] is 0.385.
GUCCUCUUUCACGUGCGCGUGUAAGAAAGAAGUGAACCAGAGAAACACACGUUGUGGUAUAUUACCUGGUA [A22U G27A]: the self-cleavage came out at 0.283.
Turning to GUCCUCUUUCACGUGCGCGUGUAAGACAGAAGUGAACCAGAGAAACACACGUUGUGGUAUAUUACCUGGUA [A22U G27C], the self-cleavage was 0.178.
With GUCCUCUUUCACGUGCGCGUGUAAGAUAGAAGUGAACCAGAGAAACACACGUUGUGGUAUAUUACCUGGUA [A22U G27U], the self-cleavage came to 0.187.
Consider GUCCUCUUUCACGUGCGCGUGUAAGAGAGAAGUGAACCAGAGAAGCACACGUUGUGGUAUAUUACCUGGUA [A22U A45G], for which the self-cleavage is 0.225.
The figure for GUCCUCUUUCACGUGCGCGUGUAAGAGAGAAGUGAACCAGAGAACCACACGUUGUGGUAUAUUACCUGGUA [A22U A45C] is 0.179; for GUCCUCUUUCACGUGCGCGUGUAAGAGAGAAGUGGACCAGAGAAACACACGUUGUGGUAUAUUACCUGGUA [A22U A35G] it is 0.84.
With GUCCUCUUUCACGUGCGCGUGUAAGAGAGAAGUGCACCAGAGAAACACACGUUGUGGUAUAUUACCUGGUA [A22U A35C], the self-cleavage came out at 0.762.
As for GUCCUCUUUCACGUGCGCGUGUAAGAGAGAAGUGUACCAGAGAAACACACGUUGUGGUAUAUUACCUGGUA [A22U A35U], the self-cleavage came to 0.611.
In the case of GUCCUCUUUCACGUGCGCGUGGAAGAUAGAAGUGAACCAGAGAAACACACGUUGUGGUAUAUUACCUGGUA [A22G G27U], the self-cleavage is 0.262.
As to GUCCUCUUUCACGUGCGCGUGGAAGACAGAAGUGAACCAGAGAAACACACGUUGUGGUAUAUUACCUGGUA [A22G G27C], the self-cleavage stood at 0.161.
GUCCUCUUUCACGUGCGCGUGGAAGAGAGAAGUGAACCAGAGAAACACACGUUCUGGUAUAUUACCUGGUA [A22G G54C]: the self-cleavage turned out to be 0.35.
Turning to GUCCUCUUUCACGUGCGCGUGGAAGAGAGAAGUGAACCAGAGAAACACACGUUGUGGUAUAUUACGUGGUA [A22G C66G], the self-cleavage worked out at 0.302.
In the case of GUCCUCUUUCACGUGCGCGUGUAAGAGAGAAGUGAACCAGAGAAACACACGUUGUGGUAUAUUAUCUGGUA [A22U C65U], the self-cleavage came to 0.229.
Regarding GUCCUCUUUCACGUGCGCGUGUAAGAGAGAAGUGAACCAGAGAAACACACGUUGUGGUAUAUUAACUGGUA [A22U C65A], the self-cleavage was 0.903.
For the variant GUCCUCUUUCACGUGCGCGUGUAAGAGAGAAGUGAACCAGAGAAACACACGUUGUGGUAUAUUAGCUGGUA [A22U C65G], the self-cleavage is 0.266.
Consider GUCCUCUUUCACGUGCGCGUGUAAGAGAGAAGUGAACCAGAGAUACACACGUUGUGGUAUAUUACCUGGUA [A22U A44U], for which the self-cleavage turned out to be 0.173.
GUCCUCUUUCACGUGCGCGUGGAAGAGAGAAGUGAACCAGAGAAACACACGUUGUGGUAUACUACCUGGUA [A22G U62C]: the self-cleavage was 0.276.
Take GUCCUCUUUCACGUGCGCGUGUACGAGAGAAGUGAACCAGAGAAACACACGUUGUGGUAUAUUACCUGGUA [A22U A24C]: the self-cleavage was 0.71.
With GUCCUCUUUCACGUGCGCGUGUAUGAGAGAAGUGAACCAGAGAAACACACGUUGUGGUAUAUUACCUGGUA [A22U A24U], the self-cleavage was found to be 0.554.
For GUCCUCUUUCACGUGCGCGUGUAAGAGAGAAGUCAACCAGAGAAACACACGUUGUGGUAUAUUACCUGGUA [A22U G34C] the value was 0.996; for GUCCUCUUUCACGUGCGCGUGUAAGAGAGAAGUUAACCAGAGAAACACACGUUGUGGUAUAUUACCUGGUA [A22U G34U], 1.21; for GUCCUCUUUCACGUGCGCGUGGAAGAGAGAAGUGAACCAGAGAAACACACGUUGUGGUAUAUUACCUGGCA [A22G U70C], 0.57.
GUCCUCUUUCACGUGCGCGUGUAAGAGAGAAGUGAACCAGCGAAACACACGUUGUGGUAUAUUACCUGGUA [A22U A41C]: the self-cleavage was determined as 0.87.
Turning to GUCCUCUUUCACGUGCGCGUGUAAGAGAGAAGUGAACCAGAGAAACACACGUUGUGGUAUAUUACCUGGUA [A22U], the self-cleavage stood at 0.864.
The figure for GUCCUCUUUCACGUGCGCGUGUAAGAGAGAAGUGAACCAGAGAAACACACAUUGUGGUAUAUUACCUGGUA [A22U G51A] is 0.811; for GUCCUCUUUCACGUGCGCGUGUAAGAGAGAAGUGAACCAGAUAAACACACGUUGUGGUAUAUUACCUGGUA [A22U G42U] it is 0.369.
On to GUCCUCUUUCACGUGCGCGUGGAAGAGAGAAGUGAACCAGAGAAACACACGUGGUGGUAUAUUACCUGGUA [A22G U53G], for which the self-cleavage turned out to be 0.936.
GUCCUCUUUCACGUGCGCGUGUAAGAGAGAAGUGAACCAGAGAAACACACGUUGUGGUAUAUUACCUGGUG [A22U A71G]: the self-cleavage is 0.791.
For GUCCUCUUUCACGUGCGCGUGUAAGAGAGAAGUGAACCAGAGAAACACACGUUGUGGUAUAUUACCUGGUU [A22U A71U], the self-cleavage is 0.747.
For GUCCUCUUUCACGUGCGCGUGUAAGAGAGAAGUGAACCAGAGAAACAUACGUUGUGGUAUAUUACCUGGUA [A22U C48U] the value was 0.0855; for GUCCUCUUUCACGUGCGCGUGUAAGAGAGAAGUGAACCAGAGAAACAGACGUUGUGGUAUAUUACCUGGUA [A22U C48G], 0.111; for GUCCUCUUUCACGUGCGCGUGUAAGAGAGAAGUGAACCAGAGAAACACACGUUGUUGUAUAUUACCUGGUA [A22U G56U], 0.063.
The figure for GUCCUCUUUCACGUGCGCGUGUAAGAGAGAAGUGAACCAGAGAAACACACGUUGUCGUAUAUUACCUGGUA [A22U G56C] is 0.214.

The record behind these values is the RNAGym collection of RNA variant scans (doi:10.7554/elife.80360).
